Results: article PMC11864811, “Human CST Stimulates Base Excision Repair to Prevent the Accumulation of Oxidative DNA Damage” (Journal of molecular biology, 2024)
Blank lines part the entries; values can stand above or below the binder they belong to.

Legend:
[1] = molecular target: Recombinant human OGG1 (6X-His tagged) (human, UniProt O15527 1-345); experiment: cell-based or functional assay
[2] = molecular target: Recombinant human Pol β (6X-His tagged) (human, UniProt P06746 1-335); experiment: cell-based or functional assay

Recombinant human OGG1 (6X-His tagged), sequence (O15527 whole entry): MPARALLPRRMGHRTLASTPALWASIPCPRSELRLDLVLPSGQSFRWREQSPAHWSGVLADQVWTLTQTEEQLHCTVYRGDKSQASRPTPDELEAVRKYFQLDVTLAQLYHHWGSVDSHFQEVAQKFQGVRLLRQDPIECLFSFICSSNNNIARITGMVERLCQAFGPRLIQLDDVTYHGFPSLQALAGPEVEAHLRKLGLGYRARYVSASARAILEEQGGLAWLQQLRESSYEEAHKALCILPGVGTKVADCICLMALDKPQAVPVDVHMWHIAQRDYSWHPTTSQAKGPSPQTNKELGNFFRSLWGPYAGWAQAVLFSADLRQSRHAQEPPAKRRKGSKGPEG

OGG1 lesion removal and phosphodiester cleavage on an 8-oxo-G substrate, fold increase with purified CTC1 (250-1500 nM; value at the highest concentration) [1]: 3.1 fold | Pol β DNA synthesis on a random sequence 66 nt gapped substrate, fold increase with purified CTC1 [2]: ~7 fold | Pol β dRP lyase activity, fold increase with purified CTC1 (250-1500 nM; value at the highest concentration) [2]: ~7.5 fold | Pol β strand displacement synthesis on a 6-nt gapped substrate, fold increase with purified CTC1 [2]: 3 fold
B1: FLAG-CTC1 (natural protein, human, UniProt Q2NKJ3 1-1217, looked up)
chain: MAAGRAQVPSSEQAWLEDAQVFIQKTLCPAVKEPNVQLTPLVIDCVKTVWLSQGRNQGSTLPLSYSFVSVQDLKTHQRLPCCSHLSWSSSAYQAWAQEAGPNGNPLPREQLLLLGTLTDLSADLEQECRNGSLYVRDNTGVLSCELIDLDLSWLGHLFLFPRWSYLPPARWNSSGEGHLELWDAPVPVFPLTISPGPVTPIPVLYPESASCLLRLRNKLRGVQRNLAGSLVRLSALVKSKQKAYFILSLGRSHPAVTHVSIIVQVPAQLVWHRALRPGTAYVLTELRVSKIRGQRQHVWMTSQSSRLLLLKPECVQELELELEGPLLEADPKPLPMPSNSEDKKDPESLVRYSRLLSYSGAVTGVLNEPAGLYELDGQLGLCLAYQQFRGLRRVMRPGVCLQLQDVHLLQSVGGGTRRPVLAPCLRGAVLLQSFSRQKPGAHSSRQAYGASLYEQLVWERQLGLPLYLWATKALEELACKLCPHVLRHHQFLQHSSPGSPSLGLQLLAPTLDLLAPPGSPVRNAHNEILEEPHHCPLQKYTRLQTPSSFPTLATLKEEGQRKAWASFDPKALLPLPEASYLPSCQLNRRLAWSWLCLLPSAFCPAQVLLGVLVASSHKGCLQLRDQSGSLPCLLLAKHSQPLSDPRLIGCLVRAERFQLIVERDVRSSFPSWKELSMPGFIQKQQARVYVQFFLADALILPVPRPCLHSATPSTPQTDPTGPEGPHLGQSRLFLLCHKEALMKRNFCVPPGASPEVPKPALSFYVLGSWLGGTQRKEGTGWGLPEPQGNDDNDQKVHLIFFGSSVRWFEFLHPGQVYRLIAPGPATPMLFEKDGSSCISRRPLELAGCASCLTVQDNWTLELESSQDIQDVLDANKSLPESSLTDLLSDNFTDSLVSFSAEILSRTLCEPLVASLWMKLGNTGAMRRCVKLTVALETAECEFPPHLDVYIEDPHLPPSLGLLPGARVHFSQLEKRVSRSHNVYCCFRSSTYVQVLSFPPETTISIPLPHIYLAELLQGGQSPFQATASCHIVSVFSLQLFWVCAYCTSICRQGKCTRLGSTCPTQTAISQAIIRLLVEDGTAEAVVTCRNHHVAAALGLCPREWASLLDFVQVPGRVVLQFAGPGAQLESSARVDEPMTMFLWTLCTSPSVLRPIVLSFELERKPSKIVPLEPPRLQRFQCGELPFLTHVNPRLRLSCLSIRESEYSSSLGILASSC

Pol β DNA synthesis on a random sequence 66 nt gapped substrate, fold increase with the CST complex [2]: ~3 fold | Pol β dRP lyase activity, fold increase with the CST complex (7.5-45 nM; value at the highest concentration) [2]: ~10 fold
B2: Human CST complex (CTC1-STN1-TEN1) (complex)
chain 1: B1 chain
chain 2: MQPGSSRCEEETPSLLWGLDPVFLAFAKLYIRDILDMKESRQVPGVFLYNGHPIKQVDVLGTVIGVRERDAFYSYGVDDSTGVINCICWKKLNTESVSAAPSAARELSLTSQLKKLQETIEQKTKIEIGDTIRVRGSIRTYREEREIHATTYYKVDDPVWNIQIARMLELPTIYRKVYDQPFHSSALEKEEALSNPGALDLPSLTSLLSEKAKEFLMENRVQSFYQQELEMVESLLSLANQPVIHSASSDQVNFKKDTTSKAIHSIFKNAIQLLQEKGLVFQKDDGFDNLYYVTREDKDLHRKIHRIIQQDCQKPNHMEKGCHFLHILACARLSIRPGLSEAVLQQVLELLEDQSDIVSTMEHYYTAF
chain 3: MMLPKPGTYYLPWEVSAGQVPDGSTLRTFGRLCLYDMIQSRVTLMAQHGSDQHQVLVCTKLVEPFHAQVGSLYIVLGELQHQQDRGSVVKARVLTCVEGMNLPLLEQAIREQRLYKQERGGSQ

OGG1 lesion removal and phosphodiester cleavage on an 8-oxo-G substrate, fold increase with purified STN1 (250-1500 nM; value at the highest concentration) [1]: 4.3 fold | Pol β DNA synthesis on a random sequence 66 nt gapped substrate, fold increase with purified STN1 [2]: ~7 fold | Pol β dRP lyase activity, fold increase with purified STN1 (250-1500 nM; value at the highest concentration) [2]: 8 fold | Pol β strand displacement synthesis on a 6-nt gapped substrate, fold increase with purified STN1 [2]: 3 fold
B3: Myc-STN1 (natural protein, human, UniProt Q9H668 1-368, looked up)
chain: B2 chain 2

Pol β DNA synthesis on a random sequence 66 nt gapped substrate, fold increase with purified TEN1 [2]: ~3 fold | Pol β dRP lyase activity, fold increase with purified TEN1 (250-1500 nM; value at the highest concentration) [2]: 1.5 fold
B4: FLAG-TEN1 (natural protein)
chain: B2 chain 3
